Data on eight substances can be found in article PMC9972320.

pKd: −log10 of the molar value.

In the data set the target is MSI1 RRM12 (human) (UniProt O43347). Put plainly: ITC. The settings on record: ITC: 20 mM HEPES pH 7.5, 150 mM NaCl, 3 mM MgCl2, 25 C.
Setting [1] is: 30 uM RNA in cell, 600 uM protein titrant.

Chain of MSI1 RRM12 (human) (O43347 20-191): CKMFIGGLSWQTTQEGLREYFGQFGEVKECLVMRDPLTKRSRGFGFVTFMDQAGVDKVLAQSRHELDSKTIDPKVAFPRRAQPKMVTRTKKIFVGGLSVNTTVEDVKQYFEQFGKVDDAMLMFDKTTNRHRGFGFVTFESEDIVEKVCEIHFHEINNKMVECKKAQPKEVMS

In general, pKd refers to the negative decadic logarithm of the Kd, by convention in mol/L. DENV4 3'UTR showed a negative-log Kd (pKd) under setting [1] of 3.47.

In the case of JEV 3'UTR, under setting [1], the pKd was 3.66.

MVEV 3'UTR gave a negative-log Kd (pKd) under setting [1] of 3.58.

As to USUV 3'UTR, the pKd under setting [1] was 3.52.

In turn, ZIKV 3'SL had a pKd of 4.18.

The substance ZIKV 3'UTR WT gave a negative-log Kd (pKd) of 5.60.

Where the note is “[…]”, ZIKV xrRNA1 gave a negative-log Kd (pKd) of 4.02.

With ZIKV xrRNA2 deltaP4, the negative logarithm of the Kd (pKd) was 5.24.
